Laboratory results: PMC3745516

Biological target: CTEN (UniProt Q8IZW8)
Test: anti-Flag co-IP, anti-HA blot
Details: reference: HA-c-Cbl wild type; sites Y774

- binding against the reference: lost
Substance: c-Cbl (from UniProt P22681) Y774F
